Experimental data taken from article PMC8629194 (bioRxiv, 2021).

Molecular target: wt ACE2_(615)-Fc (M27) (human, UniProt Q9BYF1 18-615)
Test: SPR

Chain of wt ACE2_(615)-Fc (M27) (Q9BYF1 18-615): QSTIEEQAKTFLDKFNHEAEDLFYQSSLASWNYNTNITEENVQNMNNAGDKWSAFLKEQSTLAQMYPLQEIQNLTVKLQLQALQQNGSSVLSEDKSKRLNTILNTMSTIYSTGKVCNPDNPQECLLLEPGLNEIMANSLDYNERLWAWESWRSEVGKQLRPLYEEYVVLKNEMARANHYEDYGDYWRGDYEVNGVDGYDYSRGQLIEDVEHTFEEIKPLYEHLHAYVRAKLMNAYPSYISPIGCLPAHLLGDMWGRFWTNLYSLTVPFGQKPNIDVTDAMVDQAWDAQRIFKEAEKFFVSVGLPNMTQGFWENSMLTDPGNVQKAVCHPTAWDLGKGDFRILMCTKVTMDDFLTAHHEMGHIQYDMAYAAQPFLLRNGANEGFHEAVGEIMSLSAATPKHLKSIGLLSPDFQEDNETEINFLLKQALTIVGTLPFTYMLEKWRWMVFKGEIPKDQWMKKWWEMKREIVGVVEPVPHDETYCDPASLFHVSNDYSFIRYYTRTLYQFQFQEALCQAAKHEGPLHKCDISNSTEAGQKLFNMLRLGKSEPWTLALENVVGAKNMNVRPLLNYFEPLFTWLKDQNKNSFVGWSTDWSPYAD

B1: SARS-CoV RBD (residue 306–577) (domain or fragment)
chain: not shown
fold, affinity of RBDwt for M27 over that of SARS-CoV-1 RBD: ~5 fold
